B1: Rad50-FLAG (wild-type) (natural protein, yeast, UniProt P12753 1-1312, looked up)
chain: MSAIYKLSIQGIRSFDSNDRETIEFGKPLTLIVGMNGSGKTTIIECLKYATTGDLPPNSKGGVFIHDPKITGEKDIRAQVKLAFTSANGLNMIVTRNIQLLMKKTTTTFKTLEGQLVAINNSGDRSTLSTRSLELDAQVPLYLGVPKAILEYVIFCHQEDSLWPLSEPSNLKKKFDEIFQAMKFTKALDNLKSIKKDMSVDIKLLKQSVEHLKLDKDRSKAMKLNIHQLQTKIDQYNEEVSEIESQLNEITEKSDKLFKSNQDFQKILSKVENLKNTKLSISDQVKRLSNSIDILDLSKPDLQNLLANFSKVLMDKNNQLRDLETDISSLKDRQSSLQSLSNSLIRRQGELEAGKETYEKNRNHLSSLKEAFQHKFQGLSNIENSDMAQVNHEMSQFKAFISQDLTDTIDQFAKDIQLKETNLSDLIKSITVDSQNLEYNKKDRSKLIHDSEELAEKLKSFKSLSTQDSLNHELENLKTYKEKLQSWESENIIPKLNQKIEEKNNEMIILENQIEKFQDRIMKTNQQADLYAKLGLIKKSINTKLDELQKITEKLQNDSRIRQVFPLTQEFQRADLEMDFQKLFINMQKNIAINNKKMHELDRRYTNALYNLNTIEKDLQDNQKSKEKVIQLLSENLPEDCTIDEYNDVLEETELSYKTALENLKMHQTTLEFNRKALEIAERDSCCYLCSRKFENESFKSKLLQELKTKTDANFEKTLKDTVQNEKEYLHSLRLLEKHIITLNSINEKIDNSQKCLEKAKEETKTSKSKLDELEVDSTKLKDEKELAESEIRPLIEKFTYLEKELKDLENSSKTISEELSIYNTSEDGIQTVDELRDQQRKMNDSLRELRKTISDLQMEKDEKVRENSRMINLIKEKELTVSEIESSLTQKQNIDDSIRSKRENINDIDSRVKELEARIISLKNKKDEAQSVLDKVKNERDIQVRNKQKTVADINRLIDRFQTIYNEVVDFEAKGFDELQTTIKELELNKAQMLELKEQLDLKSNEVNEEKRKLADSNNEEKNLKQNLELIELKSQLQHIESEISRLDVQNAEAERDKYQEESLRLRTRFEKLSSENAGKLGEMKQLQNQIDSLTHQLRTDYKDIEKNYHKEWVELQTRSFVTDDIDVYSKALDSAIMKYHGLKMQDINRIIDELWKRTYSGTDIDTIKIRSDEVSSTVKGKSYNYRVVMYKQDVELDMRGRCSAGQKVLASIIIRLALSETFGANCGVIALDEPTTNLDEENIESLAKSLHNIINMRRHQKNFQLIVITHDEKFLGHMNAAAFTDHFFKVKRDDRQKSQIEWVDINRVTY
notes: Rad50, yeast, expressed from the pFB-RAD50-FLAG vector; Dimeric by mass photometry; also called Rad50-WT; wild-type Rad50 protein

One series addresses Rad50-C47-FLAG (yeast) (UniProt P12753). As to the kind of experiment: mass photometry; Rad50 variants alone; molecular weight estimated.
Series [1] deals with the molecule itself. The description is as above.
For the series “Rad50-FLAG (wild-type)”, the target named is B1. As to the kind of experiment: pull-down; MBP-pSae2 (bait) from Sf9 extracts immobilised on amylose resin and washed, incubated 1 h at 4 °C with 2.5 μg purified Rad50-FLAG variants (prey); 50 mM Tris-HCl pH 7.5, 2 mM EDTA, 80 mM NaCl, 0.2% NP40; eluted with 20 mM maltose; anti-FLAG blot. As to conditions: both partners purified.
The target of the next series is T1, Rad50-C47 (Saccharomyces cerevisiae, UniProt P12753 1-1312, K1299R).
T1 sequence: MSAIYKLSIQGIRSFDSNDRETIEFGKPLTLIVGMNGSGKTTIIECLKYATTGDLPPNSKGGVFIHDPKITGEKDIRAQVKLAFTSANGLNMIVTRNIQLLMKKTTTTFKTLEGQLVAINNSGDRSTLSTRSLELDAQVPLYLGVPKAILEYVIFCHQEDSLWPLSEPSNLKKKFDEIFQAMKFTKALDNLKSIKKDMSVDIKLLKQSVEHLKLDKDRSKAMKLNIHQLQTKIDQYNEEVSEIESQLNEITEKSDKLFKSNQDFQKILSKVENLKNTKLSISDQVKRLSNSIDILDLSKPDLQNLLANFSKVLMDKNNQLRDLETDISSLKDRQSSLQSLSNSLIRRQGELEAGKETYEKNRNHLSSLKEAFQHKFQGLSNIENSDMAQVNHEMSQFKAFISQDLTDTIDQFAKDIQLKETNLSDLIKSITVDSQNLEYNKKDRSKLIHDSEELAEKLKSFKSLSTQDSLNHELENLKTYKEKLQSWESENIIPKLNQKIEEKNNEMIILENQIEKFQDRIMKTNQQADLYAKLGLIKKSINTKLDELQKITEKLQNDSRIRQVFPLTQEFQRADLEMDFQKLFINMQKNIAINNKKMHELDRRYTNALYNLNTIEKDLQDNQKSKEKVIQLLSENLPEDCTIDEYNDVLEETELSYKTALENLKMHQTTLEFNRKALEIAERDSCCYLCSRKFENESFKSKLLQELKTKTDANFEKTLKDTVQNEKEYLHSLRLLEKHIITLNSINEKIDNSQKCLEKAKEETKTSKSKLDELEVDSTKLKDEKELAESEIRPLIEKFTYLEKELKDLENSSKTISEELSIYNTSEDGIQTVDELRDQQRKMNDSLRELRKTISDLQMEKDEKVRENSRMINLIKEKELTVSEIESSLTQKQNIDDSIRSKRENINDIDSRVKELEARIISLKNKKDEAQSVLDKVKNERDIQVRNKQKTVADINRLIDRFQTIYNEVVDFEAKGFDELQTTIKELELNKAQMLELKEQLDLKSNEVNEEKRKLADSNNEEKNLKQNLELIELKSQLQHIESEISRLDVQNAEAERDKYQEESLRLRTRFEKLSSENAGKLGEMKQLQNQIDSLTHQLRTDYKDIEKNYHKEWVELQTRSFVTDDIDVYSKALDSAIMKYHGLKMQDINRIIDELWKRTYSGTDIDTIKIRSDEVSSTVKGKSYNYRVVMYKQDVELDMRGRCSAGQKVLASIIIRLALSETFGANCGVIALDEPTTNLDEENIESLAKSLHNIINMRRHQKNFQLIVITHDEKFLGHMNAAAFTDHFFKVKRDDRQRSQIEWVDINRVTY
Put plainly: EMSA; 1 mM ATP-gamma-S, 5 mM Mg2+; comparable to WT; 25 mM Tris-acetate pH 7.5, 5 mM Mg chloride, 1 mM DTT, 0.25 ug/ul BSA, 1 mM ATP-gamma-S, 1 nM DNA, 15 min at 30 C; 6% PAGE in TAE on ice. The conditions noted are these: protein: recombinant; tags: FLAG; chain copies: 2; label: PC210 3' 32P-dC added by TdT; blunt apart from the 3' TdT-added labeled dC on PC210.

Turning to “Rad50-C47-FLAG (from UniProt P12753 1-1312) (natural protein)”, the stoichiometry N in the series with Rad50-C47-FLAG (yeast) was 2.
Turning to B1, the “stoichiometry N” value in series [1] is 2.

B2: phosphorylated MBP-Sae2 (natural protein, yeast, UniProt P46946 1-345, looked up)
chain: MVTGEENVYLKSSLSILKELSLDELLNVQYDVTTLIAKRVQALQNRNKCVLEEPNSKLAEILCHEKNAPQQSSQTSAGPGEQDSEDFILTQFDEDIKKESAEVHYRNENKHTVQLPLVTMPPNRHKRKISEFSSPLNGLNNLSDLEDCSDTVIHEKDNDKENKTRKLLGIELENPESTSPNLYKNVKDNFLFDFNTNPLTKRAWILEDFRPNEDIAPVKRGRRKLERFYAQVGKPEDSKHRSLSVVIESQNSDYEFAFDNLRNRSKSPPGFGRLDFPSTQEGNEDKKKSQEIIRRKTKYRFLMASNNKIPPYEREYVFKREQLNQIVDDGCFFWSDKLLQIYARC
modifications: phosphorylated (expressed in the presence of phosphatases inhibitors); sites not stated
notes: Sae2, yeast, from the pFB-MBP-Sae2-His vector expressing MBP and His-tagged Sae2; also called MBP-pSae2; source: Sf9, from extracts, held on amylose resin and washed
For the molecule B2, in the series with Rad50-FLAG (wild-type), the binding result is reported as “binds”.

B3: 70 bp dsDNA (PC210/PC211) (dsDNA)
DNA 1: GTAAGTGCCGCGGTGCGGGTGCCAGGGCGTGCCCTTGGGCTCCCCGGGCGCGTACTCCACCTCATGCATC
DNA 2: GATGCATGAGGTGGAGTACGCGCCCGGGGAGCCCAAGGGCACGCCCTGGCACCCGCACCGCGGCACTTAC
modifications: biotinylated dT in the oligonucleotides (Table S1; positions marked by bold underline, lost in the text)
As for B3, in the series with Rad50-C47, the binding result is “binds”.

One may read the stoichiometry N as a count of units in the complex or per binding partner.

These data come from article PMC11341764, “Sae2 controls Mre11 endo- and exonuclease activities by different mechanisms” (Nature Communications, 2024).
